Results taken from patent publication US20200347143A1 (GLENMARK PHARMACEUTICALS S A, published 2020).
Changes are numbered by the printed parent chain. Names may count otherwise. Each block holds one binder with its values, some of them ahead of it.

Legend:
human OX40 on cells [1] = target: T1, human OX40 on cells (human, UniProt P43489 29-277); assay: cell-based or functional assay
T1 sequence (looked up): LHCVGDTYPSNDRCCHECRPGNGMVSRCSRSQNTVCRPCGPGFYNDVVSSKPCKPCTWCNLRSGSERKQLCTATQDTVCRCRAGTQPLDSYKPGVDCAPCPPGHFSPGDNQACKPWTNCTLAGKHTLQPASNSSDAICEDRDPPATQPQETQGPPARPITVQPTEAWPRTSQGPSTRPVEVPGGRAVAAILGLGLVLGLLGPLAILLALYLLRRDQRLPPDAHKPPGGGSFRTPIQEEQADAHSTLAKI

rat OX40-Fc = rat OX40-Fc (rat); assay: ELISA on coated rat OX40-Fc
Method: (§1) These constructs were expressed in HEK293-EBNA1 cells and purified using protein A. Then, human and rat OX40-Fc were tested in ELISA and Biacore to determine antibody cross-reactivity. For the ELISA, 96 well-microtiter plates (Costar USA, distributor VWR AG, Nyon, Switzerland) were coated with 100 μl of recombinant human or rat OX40-Fc at 2 μg/ml in PBS. Plates were incubated overnight at 4° C. and were then blocked with PBS 2% BSA (Bovine Serum Albumine, PAA Laboratories, Pasching, Austria) at room temperature (RT) for one hour. The blocking solution was removed and the purified antibodies were added at 10 μg/ml in PBS 2% BSA. The plates were incubated at RT for 1 hour, then washed 5 times with PBS 0.01% Tween-20 (Sigma-Aldrich Chemie GmbH, Buchs, Switzerland). […] Plates were incubated for 1 hour at RT, washed 5 times with PBS 0.01% Tween-20 and the TMB substrate (Bio-rad Laboratories AG, Reinach, Switzerland) was added to the plates and the reaction stopped after 5 minutes by adding H₂SO₄. Absorbance was then read at 450 nm by a microplate reader (Biotek, USA; distributor: WITTEC AG, Littau, Switzerland). Biacore experiments were specifically conducted with Hexa-hzG3V9 and Hexa-hz1D10v1 which are dAb-Fc fusion proteins. […] Binding of human and cyno OX40-Fc molecules was determined by successively injecting these proteins on the 4 flow-paths (flow-path 1 and 3 being used as references) at a concentration of 200 nM and a flow rate of 30 uL/min for 240 seconds. Regeneration between the two injections was done using 3M MgCl2, at 30 uL/min for 60 seconds. Using these two approaches, human/rat OX40 binding was assessed (table 16).

human OX40-Fc = target: T2, human OX40-Fc (human); assay: ELISA on coated human OX40-Fc, antibody 10 µg/ml
T2 construct: also called recombinant human OX40-Fc; human OX40 (HHHH)
Method: as §1

[2] = target: recombinant CD40 molecule (R&D) (UniProt P25942 21-193); assay: direct ELISA on coated recombinant CD40, detection streptavidin-HRP, absorbance 450 nm [panel CD40]
Method: (§2) FIG. 13. A dose-response of various antibodies was incubated on various receptors, members of Tumor Necrosis Factor Receptor family, then detected with Streptavidin coupled with Horseradish Peroxidase enzyme. […] Each data point is the mean of duplicate values except for control curves that were performed in simplicate.
(§3) The experiment was conducted following the same protocol than previously described. […] These molecules were all coated at 2 μg/ml in PBS overnight at 4° C.

[3] = target: T3, recombinant DR3 molecule (R&D) (UniProt Q93038 25-199, limits assumed); assay: direct ELISA on coated recombinant DR3, detection streptavidin-HRP, absorbance 450 nm [panel DR3]
T3 sequence (looked up): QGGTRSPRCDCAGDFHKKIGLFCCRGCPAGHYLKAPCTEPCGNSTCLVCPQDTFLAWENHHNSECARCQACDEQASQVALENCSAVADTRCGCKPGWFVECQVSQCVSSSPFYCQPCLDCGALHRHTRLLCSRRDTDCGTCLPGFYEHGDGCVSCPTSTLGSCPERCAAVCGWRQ
Method: as §2, §3

[4] = target: T4, recombinant GITR molecule (R&D) (UniProt Q9Y5U5 26-161); assay: direct ELISA on coated recombinant GITR, detection streptavidin-HRP, absorbance 450 nm [panel GITR]
T4 sequence (looked up): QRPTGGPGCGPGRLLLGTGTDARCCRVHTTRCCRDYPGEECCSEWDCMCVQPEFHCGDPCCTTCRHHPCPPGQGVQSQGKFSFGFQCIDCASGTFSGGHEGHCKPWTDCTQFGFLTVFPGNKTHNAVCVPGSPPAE
Method: as §2, §3

[5] = target: T5, recombinant DR6 molecule (R&D) (UniProt O75509 42-349, limits assumed); assay: direct ELISA on coated recombinant DR6, detection streptavidin-HRP, absorbance 450 nm [panel DR6]
T5 sequence (looked up): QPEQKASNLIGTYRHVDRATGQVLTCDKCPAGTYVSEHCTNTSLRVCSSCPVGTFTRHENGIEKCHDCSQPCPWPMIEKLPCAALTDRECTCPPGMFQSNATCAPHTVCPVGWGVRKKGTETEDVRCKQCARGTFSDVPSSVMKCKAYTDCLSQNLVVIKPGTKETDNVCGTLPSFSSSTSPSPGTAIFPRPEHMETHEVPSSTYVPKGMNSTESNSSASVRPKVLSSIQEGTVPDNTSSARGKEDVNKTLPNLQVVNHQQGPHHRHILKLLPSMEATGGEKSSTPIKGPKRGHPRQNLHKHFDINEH
Method: as §2, §3

human OX40 on cells [6] = target: T1, human OX40 on cells; assay: flow cytometry on HPB-ALL cells, 10 µg/ml antibody
Method: HPB-ALL cells (DSMZ, Braunschweig, Germany, Cat. No: ACC483) were used as a human OX40 positive cell line for FACS staining. HPB-ALL were maintained in RPMI 1640 supplemented with 10% FCS and 100 U/ml Penicillin and 100 μg/ml streptomycin. 4×10e5 HPB-ALL cells in FACS buffer (PBS supplemented with 1% BSA and 0.1% sodium azide) were incubated for 45 min on ice with the anti-OX40 antibody of interest kept at a concentration of 10 μg/ml An irrelevant human IgG1 was used as an isotype control; the cells were incubated with a 1/200 dilution of anti-Human Fc-PE (EBioscience, Vienna, Austria) for 45 min on ice. Cells were then washed again and resuspended in 200 μl FACS buffer. The relative mean fluorescence of each sample was measured on a FACSCalibur instrument (BD Biosciences, Allschwil, Switzerland).
A first set of 16 humanized antibodies of human gamma one isotype were prepared. These first humanized candidates were assessed for transient expression in HEK293E cells and binding to HB-ALL cell by flow cytometry (Table 7).

[7] = target: T6, recombinant human OX40-his protein (human, UniProt P43489 29-214); assay: SPR (BIAcore 2000), antibody captured on Protein A, OX40-his injected
T6 construct: Secreted via the native signal peptide, which lies within residues 1-214; also called Human OX40R-His; histidine tagged human OX40 receptor extracellular domain
T6 sequence: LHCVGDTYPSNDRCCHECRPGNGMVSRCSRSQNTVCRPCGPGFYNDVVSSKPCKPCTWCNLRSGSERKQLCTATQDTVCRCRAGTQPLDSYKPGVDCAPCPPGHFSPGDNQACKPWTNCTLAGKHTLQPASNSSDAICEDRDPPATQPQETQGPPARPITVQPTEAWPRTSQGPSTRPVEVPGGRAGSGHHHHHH
Method: SPR analysis was used to measure the association and dissociation rate constants for the binding kinetics of the anti-OX40 antibodies. The binding kinetics were measured on a BIAcore 2000 (BIAcore-GE Healthcare Europe GmbH, Glattbrugg, Switzerland) at room temperature and analyzed with the BiaEvaluation software (v4.1, GE Healthcare Europe GmbH).
(§4) Measurements were performed on CM5 sensor chips (Biacore 2000, GE Healthcare Europe GmbH, Cat. No: BR-1000-14) individually coupled with Protein A (Sigma, Buchs, Switzerland, Cat. No: P7837) using a commercial amine coupling kit (GE Healthcare Europe GmbH, Cat. No: BR-1000-50). 200-600 RUs of humanized antibody were captured. Dilution series of OX40-his were injected at a flow rate of 10 μl/min in HBS-EP buffer (GE Healthcare Europe GmbH, Cat. No: BR1001-88). After each binding event, the surface was regenerated with 10 μl of glycine buffer pH 1.5. Experimental data were processed using a 1:1 Langmuir model with local Rmax. The dissociation time was about 7 min. Measurements were performed in duplicates or triplicates and included zero-concentration samples for referencing. Both Chit and residual values were used to evaluate the quality of a fit between the experimental data and individual binding models.

[8] = target: T6, recombinant human OX40-his protein; assay: SPR, antibody captured on Protein A, OX40-his injected
Method: as §4
Humanized antibody candidates were then assayed for their binding affinity by SPR and Fab thermal stability by DSC.

rat OX40-Fc (rat), sequence (chain, as listed by the source limits assumed): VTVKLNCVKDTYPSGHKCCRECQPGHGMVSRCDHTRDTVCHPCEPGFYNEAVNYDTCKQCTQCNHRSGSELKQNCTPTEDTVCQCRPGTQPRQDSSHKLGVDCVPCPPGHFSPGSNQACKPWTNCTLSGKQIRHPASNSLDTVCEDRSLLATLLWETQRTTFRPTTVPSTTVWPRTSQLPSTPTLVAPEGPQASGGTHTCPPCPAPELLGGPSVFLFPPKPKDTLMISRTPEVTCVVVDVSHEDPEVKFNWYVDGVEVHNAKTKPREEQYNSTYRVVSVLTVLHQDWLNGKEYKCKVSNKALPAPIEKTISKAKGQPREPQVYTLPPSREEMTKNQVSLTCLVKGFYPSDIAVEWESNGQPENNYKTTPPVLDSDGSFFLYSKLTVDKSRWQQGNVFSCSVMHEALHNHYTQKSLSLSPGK
recombinant CD40 molecule (R&D), sequence (P25942 21-193 limits assumed): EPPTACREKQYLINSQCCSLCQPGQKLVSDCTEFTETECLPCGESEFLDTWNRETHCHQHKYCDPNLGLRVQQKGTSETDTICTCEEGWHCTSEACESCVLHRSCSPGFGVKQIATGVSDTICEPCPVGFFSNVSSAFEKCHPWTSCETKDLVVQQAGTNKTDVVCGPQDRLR

B1: 106-222 IgG1 (antibody, V domains shown)
VH: QVQLVQSGSELKKPGASVKVSCKASGYTFTDYSMHWVRQAPGQGLKWMGWINTETGEPTYADDFKGRFVFSLDTSVSTAYLQISSLKAEDTAVYYCANPYYDYVSYYAMDYWGQGTTVTVSS
VL: DIQMTQSPSSLSASVGDRVTITCKASQDVSTAVAWYQQKPGKAPKLLIYSASYLYTGVPSRFSGSGSGTDFTFTISSLQPEDIATYYCQQHYSTPRTFGQGTKLEIKR
% donor responder (>2), SEB assay, IL-2 release (human OX40 on cells [1]): 6% | Mean, normalized IL-2 release, SEB assay (human OX40 on cells [1]): 0.86 | binding result (rat OX40-Fc): no binding (tested: 10 µg/ml) | binding result (human OX40-Fc): binds

B2: 7H11 IgG1 (Humanized 7H11-VH2 N58K-D54E with 7H11 VL1) (antibody, V domains shown)
VH: QVQLVQSGAEVKKPGASVKVSCKASGYTFTRYYMHWVRQAPGQGLEWMGWIYPGEGSTKYAQKFQGRVTMTRDTSISTAYMELSRLRSDDTAVYYCAREYGNYDYWGQGTLVTVSS
VL: DIVMTQSPDSLAVSLGERATINCKSSQSLLNSGNQKNYLAWYQQKPGQPPKLLIYGASTRESGVPDRFSGSGSGTDFTLTISSLQAEDVAVYYCQNDHSYPYTFGQGTKLEIKR
notes: also called 7H11_v8 IgG1
binding result [2]: no binding (tested: 10 µg/ml) | binding result [3]: no binding (tested: 10 µg/ml) | binding result [4]: no binding (tested: 10 µg/ml) | binding result (rat OX40-Fc): no binding (tested: 10 µg/ml) | binding result [5]: no binding (tested: 10 µg/ml)

B3: Humanized 7H11 VH2/VL1 IgG1 (antibody, V domains shown)
VH: B2 VH with E55D, K59N
VL: B2 VL
notes: human IgG1, kappa; also called Humanized VH2-VL1 IgG1
MFI (human OX40 on cells [6]): 120 | Kd [7]: 21 nM | koff [7]: 0.0013 s⁻¹ | kon [7]: 58500 M⁻¹ s⁻¹

B4: Humanized 7H11 VH3/VL1 IgG1 (antibody, V domains shown)
VH: B2 VH with W50I, E55D, K59S, I76T, A79V, R85S, D89E
VL: B2 VL
notes: human IgG1, kappa; also called Humanized VH3-VL1 IgG1
MFI (human OX40 on cells [6]): 121 | Kd [7]: 80 nM | koff [7]: 0.0055 s⁻¹ | kon [7]: 62500 M⁻¹ s⁻¹

Further lines, results first:

MFI (human OX40 on cells [6]): 120 | Kd [7]: 35 nM | koff [7]: 0.00058 s⁻¹ | kon [7]: 16700 M⁻¹ s⁻¹
B5: Humanized 7H11 VH1/VL1 IgG1 (antibody, V domains shown)
VH: B2 VH with E55D, A61S, M70I, I76A, R85S, D89E
VL: B2 VL
notes: human IgG1, kappa; also called Humanized VH1-VL1 IgG1

Kd [8]: 2.87 nM
B6: Humanized 7H11 VH2 V37M/VL1 (antibody, human IgG1, kappa, V domains shown)
VH: B2 VH with V37M, E55D, K59N
VL: B2 VL
notes: human IgG1, kappa

% donor responder (>2), SEB assay, IL-2 release (human OX40 on cells [1]): 50% | Mean, normalized IL-2 release, SEB assay (human OX40 on cells [1]): 2.36 | binding result (rat OX40-Fc): no binding (tested: 10 µg/ml) | binding result (human OX40-Fc): binds
B7: 9B12 IgG1 (antibody, V domains shown)
VH: QVQLQESGPGLVKPSQTLSLTCAVYGGSFSSGYWNWIRKHPGKGLEYIGYISYNGITYHNPSLKSRITINRDTSKNQYSLQLNSVTPEDTAVYYCARYKYDYDGGHAMDYWGQGTLVTVSS
VL: DIQMTQSPSSLSASVGDRVTITCRASQDISNYLNWYQQKPGKAPKLLIYYTSKLHSGVPSRFSGSGSGTDYTLTISSLQPEDFATYYCQQGSALPWTFGQGTKVEIKR
notes: also called OX40mab24

binding result (human OX40-Fc): binds
B8: 1A7 IgG1 (antibody, V domains shown)
VH: EVQLVQSGAEVKKPGASVKVSCKASGYTFTDSYMSWVRQAPGQGLEWIGDMYPDNGDSSYNQKFRERVTITRDTSTSTAYLELSSLRSEDTAVYYCVLAPRWYFSVWGQGTLVTVSS
VL: B7 VL with K53R, H55R, Y71F, S92H, A93T, W96P
